The target in experiment [1] is T1, Peptide 1 (amino acid position 1-28 of the human CCR6) (human, biotinylated).
T1 construct: also called first 28 AA
T1 peptide: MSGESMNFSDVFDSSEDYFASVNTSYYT
Put plainly: ELISA, biotinylated peptide on a streptavidin-coated plate. How it is done: Two overlapping biotinylated peptides spanning the entire N-terminal region of human CCR6 were then synthesized and used in more defined anti-CCR6 mAb epitope mapping studies. Peptide 1 ([…], SEQ ID NO: 2) corresponds to amino acid position 1-28 of the human CCR6 and Peptide 2 ([…], SEQ ID NO: 101) corresponds to amino acid position 18-46 of the human CCR6. Briefly, multiwell plates were coated with streptavidin and washed before the biotinylated peptides were added to separate wells and incubated to facilitate binding of the peptides to the plate. Different anti-human CCR6 antibodies were then tested by adding the respective antibodies to the wells of the plate and incubating the plate. An isotype control and buffer only were included as negative controls. Following washing, appropriate conjugated antibodies were added and the plates were incubated. The plates were washed again and binding of the antibodies to the immobilised peptides was visualised (FIGS. 8 and 9).
(An ELISA detects its analyte on a solid surface through an enzyme-linked reagent.)

The next experiment concerns the target T2, hCXCR1 (human, UniProt P25024 1-350).
T2 construct: whole, on cells; also called hCXCRI; human CXCR1 transfected L1.2 cells
T2 sequence (looked up): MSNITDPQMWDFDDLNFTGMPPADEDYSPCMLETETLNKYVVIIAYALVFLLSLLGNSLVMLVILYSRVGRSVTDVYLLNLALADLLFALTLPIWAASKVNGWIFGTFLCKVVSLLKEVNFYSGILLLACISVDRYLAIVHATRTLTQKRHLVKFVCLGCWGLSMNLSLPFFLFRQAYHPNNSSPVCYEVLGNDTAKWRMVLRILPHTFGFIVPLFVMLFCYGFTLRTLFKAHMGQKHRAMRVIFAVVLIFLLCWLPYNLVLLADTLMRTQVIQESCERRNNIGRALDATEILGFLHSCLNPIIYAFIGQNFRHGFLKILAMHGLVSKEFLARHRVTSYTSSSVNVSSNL
In words: flow cytometry, hybridoma culture supernatant on L1.2/hCXCR1 transfectants. How it is done: (§1) Monoclonal antibodies reactive with CCR6 were identified using human CCR6 transfected L1.2 cells, and untransfected L1.2 cells, or L1.2 cells transfected with unrelated or closely receptors such as hCXCRI, hCXCR2 or hCXCR3 using immunofluorescent staining and analysis using a FACSCalibur (BD Biosciences). Monoclonal antibody staining of cells was performed using standard procedures as described previously (Lee et al., 2006, Nat. Biotech. 24:1279-1284).
(§2) L1.2 transfectants expressing high levels of hCCR6 were used to immunize mice, and approximately 40 monoclonal antibodies were initially identified via flow cytometry that reacted with L1.2 cells transfected with hCCR6, of which approximately 10 reacted specifically with L1.2/hCCR6 transfectants but not with untransfected L1.2 cells or with L1.2 cells transfected with the closely related receptors hCXCRI, hCXCR2 or hCXCR3 (FIG. 3).
On the technique in general: In flow cytometry, cells or beads pass a laser one at a time.

The next experiment addresses T3, hCXCR2 (human, UniProt P25025 1-360).
T3 construct: whole, on cells; also called human CXCR2 transfected L1.2 cells
T3 sequence (looked up): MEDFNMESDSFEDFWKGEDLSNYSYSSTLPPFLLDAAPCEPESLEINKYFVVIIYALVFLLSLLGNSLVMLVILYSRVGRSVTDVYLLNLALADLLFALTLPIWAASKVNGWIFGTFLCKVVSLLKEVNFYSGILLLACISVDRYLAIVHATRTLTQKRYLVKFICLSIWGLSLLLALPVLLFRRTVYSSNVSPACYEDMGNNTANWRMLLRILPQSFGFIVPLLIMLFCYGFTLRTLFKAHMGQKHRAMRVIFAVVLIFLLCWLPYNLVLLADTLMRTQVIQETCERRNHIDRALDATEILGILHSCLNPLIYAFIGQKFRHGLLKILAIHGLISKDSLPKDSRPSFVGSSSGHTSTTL
In words: flow cytometry, hybridoma culture supernatant on L1.2/hCXCR2 transfectants. How it is done:
as §1, §2

For another experiment, the target named is T4, hCXCR3 (human, UniProt P49682 1-368).
T4 construct: whole, on cells; also called human CXCR3 transfected L1.2 cells
T4 sequence (looked up): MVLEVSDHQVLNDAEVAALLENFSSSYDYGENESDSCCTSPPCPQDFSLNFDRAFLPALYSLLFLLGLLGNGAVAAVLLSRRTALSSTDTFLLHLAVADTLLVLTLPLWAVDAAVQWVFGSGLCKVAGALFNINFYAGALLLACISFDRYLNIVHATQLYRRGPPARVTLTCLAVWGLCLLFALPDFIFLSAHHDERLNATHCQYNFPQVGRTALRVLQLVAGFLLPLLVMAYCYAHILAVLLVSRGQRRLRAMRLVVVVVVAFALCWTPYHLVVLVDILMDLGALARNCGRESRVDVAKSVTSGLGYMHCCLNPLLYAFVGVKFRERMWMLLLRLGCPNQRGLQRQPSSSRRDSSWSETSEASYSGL
In words: flow cytometry, hybridoma culture supernatant on L1.2/hCXCR3 transfectants. How it is done: as §1, §2

Experiment [2] addresses T5, human CCR6 (human, UniProt P51684 1-374).
T5 construct: also called hCCR6; CD196
T5 sequence: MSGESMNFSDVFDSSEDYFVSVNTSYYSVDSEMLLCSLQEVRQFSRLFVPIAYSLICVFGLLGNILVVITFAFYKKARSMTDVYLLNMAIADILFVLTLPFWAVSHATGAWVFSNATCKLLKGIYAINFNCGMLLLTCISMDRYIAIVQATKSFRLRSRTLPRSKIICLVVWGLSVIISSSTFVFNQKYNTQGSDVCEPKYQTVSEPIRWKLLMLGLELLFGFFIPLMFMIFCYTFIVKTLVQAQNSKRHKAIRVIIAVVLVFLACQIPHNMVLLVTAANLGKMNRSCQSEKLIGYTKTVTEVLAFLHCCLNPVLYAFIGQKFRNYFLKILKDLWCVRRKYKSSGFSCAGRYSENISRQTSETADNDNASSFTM
Put plainly: competition with 125I-MIP-3α for L1.2/hCCR6 transfectants, partially purified mAb. As to the method: For ligand binding analysis, recombinant human CCL20 (MIP3α) (“ligand”) was obtained from Peprotech (New Jersey, USA). […] Cells were washed once in binding buffer (50 mM Hepes, pH 7.5, 1 mM CaCl, 5 mM MgCb, 0.5% BSA) and resuspended in binding buffer at a concentration of 2.5×10^6 cells/ml. Cold Purified monoclonal antibody or diluted hybridoma culture medium (cold competitor) was added to a 96-well plate followed by an equal volume (40 μl) binding buffer containing 1×10^5 cells. Cells and competitor were preincubated at room temperature for 15 min. Then radiolabeled ligand (final concentration 0.5-2 nM) was added to each well to give a final reaction volume of 120 μl. After a 60-min incubation at room temperature, the cells were washed three times with 1 ml of binding buffer containing 150 mM NaCl. The radioactivity (amount of bound label) in the cell pellets was counted in a TopCount liquid scintillation counter (Packard). Non-specific background binding was calculated by incubating cells […]. Samples were assayed in duplicate.
After incubation and washing the amount of label bound to cells was measured and the percentage inhibition determined by comparison to a control reaction with no added antibody (FIGS. 1 and 5).

The target in experiment [3] is T5, human CCR6. In words: FACS binding assay on hCCR6 L1.2 cells, PE-conjugated anti-human Fc detection; 1-21/WT mutant. How it is done:
(§3) Binding characteristics of hAB6 and mutants hAB6-IgG1 to human CCR6 was performed using a FACS binding assay using cell line expressing human CCR6 (L1.2 human CCR6). Approximately 2.5 10⁵ hCCR6 L1.2 cells/test were washed with FACS binding buffer (FBB) (PBS, 0.5% BSA, 0.1% NaN3 (pH 7.4)), and stained with hAB6 or hAB6 mutants (4.4 μg/ml) and serial 3-fold dilutions of antibodies. After 1 h on ice, the cells were washed with FBB (pH 7.4) and with an anti-human Fc antibody PE-conjugated (Jackson ImmunoResearch). After 30 min on ice, the cells were washed 3 times with FBB (pH 7.4), and resuspended in 1% formaldehyde, and analyzed using a FACS LSR flow cytometer (BD Immunocytometry Systems). EC₅₀ values were calculated using GraphPad Prism.

The target of experiment [4] is T5, human CCR6. Put plainly: FACS binding assay on hCCR6 L1.2 cells, PE-conjugated anti-human Fc detection; 1-23/3-3 mutant. As to the method: as §3
For experiment [5], the target named is T5, human CCR6. In words: FACS binding assay on hCCR6 L1.2 cells, PE-conjugated anti-human Fc detection; WT/3-3 mutant. As to the method: as §3
The target of experiment [6] is T5, human CCR6. In words: FACS binding assay on hCCR6 L1.2 cells, PE-conjugated anti-human Fc detection; 1-23/WT mutant. How it is done: as §3
In experiment [7] the target is T5, human CCR6. In words: FACS binding assay on hCCR6 L1.2 cells, PE-conjugated anti-human Fc detection; 1-21/3-3 mutant. As to the method:
as §3

Experiment [8] addresses T5, human CCR6. Put plainly: FACS binding assay on hCCR6 L1.2 cells, PE-conjugated anti-human Fc detection; hAB6 (WT/WT). As to the method:
as §3

B1: AB1 (antibody, V domains shown)
VH: EVNLVESGGGLVQPGGSLKLSCAASGFTFSDYYMYWVRQTPEKRLEWVTYITNGDGRTYYSDTVRGRFTISRDNAKNTLYLQMSRLKSEDTAMYYCTSPPLGGAWFGYWGQGTLVTVS
VL: DVLMTQTPLSLPVSLGDQASISCRSSQSIVHSNGNTYLEWYLQKPGQSPKLLIYKVSKRFSGVPDRFSGSGSGTDFTLKISRVEAEDLGVYYCFQGSHVPLTFGAGTKLELKR
notes: Mouse hybridoma antibody, isotype IgG1; also called AB1-O17
As to B1, the binding result in experiment [1] is “binds”; with hCXCR1, “no binding (tested: not given (culture supernatant))”; with hCXCR2 it was “no binding (tested: not given (culture supernatant))”; with hCXCR3 it was “no binding (tested: not given (culture supernatant))”; with human CCR6 [2], “binds”.

B2: hAB6 mutant 1-21/WT (antibody, V domains shown)
VH: EVQLVESGGGLVQPGGSLRLSCAASGFPFSDYYLYWVRQAPGKGLEWVAYITNGVGRTYYSDSVKGRFTISRDNAKNTLYLQMNSLRDEDTAVYYCTSPPLGGAWFGYWGQGTLVTVS
VL: DIVMTQSPLSLPVTPGEPASISCRSSQSIVHSNGNTYLEWYLQKPGQSPRLLIYKVSKRFSGVPDRFSGSGSGTDFTLKISRVEAEDVGVYYCFQGSHVPLTFGQGTKLEIKR
notes: IgG1 format
B2 showed an EC50 with human CCR6 [3] of 0.46 nM. This lies in the sub-nanomolar range.

B3: hAB6 mutant 1-23/3-3 (antibody, V domains shown)
VH: EVQLVESGGGLVQPGGSLRLSCVASGFPFSDYYLYWVRQAPGKGLEWVAYITNGVGRTYYSDSVKGRFTISRDNAKNTLYLQMNSLRDEDTAVYYCTSPPLGGAWFGYWGQGTLVTVS
VL: DIVMTQSPLSLPVTPGEPASISCRSSRSIVHSNGNTYLEWYLQKPGQSPRLLIYKVSKRFSGVPDRFSGSGSGTDFTLKISRVEAEDVGVYYCFQGSHVPLTFGQGTKLEIKR
notes: IgG1 format
In the case of B3, the response with human CCR6 [4] was half-maximal at 1.2 nM (EC50).

B4: hAB6 mutant WT/3-3 (antibody, V domains shown)
VH: EVQLVESGGGLVQPGGSLRLSCAASGFPFSDYYLYWVRQAPGKGLEWVAYITNGVGRTYYSDSVKGRFTISRDNAKNTLYLQMNSLRDEDTAVYYCTSPPLGGAWFAYWGQGTLVTVS
VL: DIVMTQSPLSLPVTPGEPASISCRSSRSIVHSNGNTYLEWYLQKPGQSPRLLIYKVSKRFSGVPDRFSGSGSGTDFTLKISRVEAEDVGVYYCFQGSHVPLTFGQGTKLEIKR
notes: IgG1 format
In the experiment with human CCR6 [5], B4 displayed an EC50 of 3.2 nM.

B5: hAB6 mutant 1-23/WT (antibody, V domains shown)
VH: EVQLVESGGGLVQPGGSLRLSCVASGFPFSDYYLYWVRQAPGKGLEWVAYITNGVGRTYYSDSVKGRFTISRDNAKNTLYLQMNSLRDEDTAVYYCTSPPLGGAWFGYWGQGTLVTVS
VL: DIVMTQSPLSLPVTPGEPASISCRSSQSIVHSNGNTYLEWYLQKPGQSPRLLIYKVSKRFSGVPDRFSGSGSGTDFTLKISRVEAEDVGVYYCFQGSHVPLTFGQGTKLEIKR
notes: IgG1 format
Turning to B5, in the experiment with human CCR6 [6], a half-maximal response (EC50) required 0.39 nM.

B6: hAB6 mutant 1-21/3-3 (antibody, V domains shown)
VH: EVQLVESGGGLVQPGGSLRLSCAASGFPFSDYYLYWVRQAPGKGLEWVAYITNGVGRTYYSDSVKGRFTISRDNAKNTLYLQMNSLRDEDTAVYYCTSPPLGGAWFGYWGQGTLVTVS
VL: DIVMTQSPLSLPVTPGEPASISCRSSRSIVHSNGNTYLEWYLQKPGQSPRLLIYKVSKRFSGVPDRFSGSGSGTDFTLKISRVEAEDVGVYYCFQGSHVPLTFGQGTKLEIKR
notes: IgG1 format
B6: the EC50 with human CCR6 [7] was 0.41 nM. This counts as sub-nanomolar.

B7: humanized AB6 mAb (antibody, V domains shown)
VH: EVQLVESGGGLVQPGGSLRLSCAASGFPFSDYYLYWVRQAPGKGLEWVAYITNGVGRTYYSDSVKGRFTISRDNAKNTLYLQMNSLRDEDTAVYYCTSPPLGGAWFAYWGQGTLVTVS
VL: DIVMTQSPLSLPVTPGEPASISCRSSQSIVHSNGNTYLEWYLQKPGQSPRLLIYKVSKRFSGVPDRFSGSGSGTDFTLKISRVEAEDVGVYYCFQGSHVPLTFGQGTKLEIKR
notes: also called hAB6; hAB6-IgG1
Molecule B7 gave an EC50 with human CCR6 [8] of 3.4 nM.

A word on the EC50: it is the concentration that produces a half-maximal response. Low values mean higher potency in that assay, high ones lower potency in that assay.

For the origin of these results see patent publication US20240109971A1 (MONASH UNIVERSITY, published 2024).
